Among the data in publication PMC11886768 (2025) are ratio to parent values, retold here.

To fix the notation:
B1: CRY1 (third protein in the mammalian three-hybrid assay) [Arabidopsis] / E-COP1 [Arabidopsis] (parent complex)
chain 1: MSGSVSGCGSGGCSIVWFRRDLRVEDNPALAAAVRAGPVIALFVWAPEEEGHYHPGRVSRWWLKNSLAQLDSSLRSLGTCLITKRSTDSVASLLDVVKSTGASQIFFNHLYDPLSLVRDHRAKDVLTAQGIAVRSFNADLLYEPWEVTDELGRPFSMFAAFWERCLSMPYDPESPLLPPKKIISGDVSKCVADPLVFEDDSEKGSNALLARAWSPGWSNGDKALTTFINGPLLEYSKNRRKADSATTSFLSPHLHFGEVSVRKVFHLVRIKQVAWANEGNEAGEESVNLFLKSIGLREYSRYISFNHPYSHERPLLGHLKFFPWAVDENYFKAWRQGRTGYPLVDAGMRELWATGWLHDRIRVVVSSFFVKVLQLPWRWGMKYFWDTLLDADLESDALGWQYITGTLPDSREFDRIDNPQFEGYKFDPNGEYVRRWLPELSRLPTDWIHHPWNAPESVLQAAGIELGSNYPLPIVGLDEAKARLHEALSQMWQLEAASRAAIENGSEEGLGDSAEVEEAPIEFPRDITMEETEPTRLNPNRRYEDQMVPSITSSLIRPEEDEESSLNLRNSVGDSRAEVPRNMVNTNQAQQRRAEPASNQVTAMIPEFNIRIVAESTEDSTAESSSSGRRERSGGIVPEWSPGYSEQFPSEENGIGGGSTTSSYLQNHHEILNWRRLSQTG
chain 2: MEEISTDPVVPAVKPDPRTSSVGEGANRHENDDGGSGGSEIGAPDLDKDLLCPICMQIIKDAFLTACGHSFCYMCIITHLRNKSDCPCCSQHLTNNQLYPNFLLDKLLKKTSARHVSKTASPLDQFREALQRGCDVSIKEVDNLLTLLAERKRKMEQEEAERNMQILLDFLHCLRKQKVDELNEVQTDLQYIKEDINAVERHRIDLYRARDRYSVKLRMLGDDPSTRNAWPHEKNQIGFNSNSLSIRGGNFVGNYQNKKVEGKAQGSSHGLPKKDALSGSDSQSLNQSTVSMARKKRIHAQFNDLQECYLQKRRQLADQPNSKQENDKSVVRREGYSNGLADFQSVLTTFTRYSRLRVIAEIRHGDIFHSANIVSSIEFDRDDELFATAGVSRCIKVFDFSSVVNEPADMQCPIVEMSTRSKLSCLSWNKHEKNHIASSDYEGIVTVWDVTTRQSLMEYEEHEKRAWSVDFSRTEPSMLVSGSDDCKVKVWCTRQEASVINIDMKANICCVKYNPGSSNYIAVGSADHHIHYYDLRNISQPLHVFSGHKKAVSYVKFLSNNELASASTDSTLRLWDVKDNLPVRTFRGHTNEKNFVGLTVNSEYLACGSETNEVYVYHKEITRPVTSHRFGSPDMDDAEEEAGSYFISAVCWKSDSPTMLTANSQGTIKVLVLAA

The variants in this assay derive from B1. Kind of assay: luciferase complementation imaging (LCI); transfected N. benthamiana leaves, n = 14, CCD camera; value is the mean ('+'); median about 0.44, box about 0.22-0.68; parent: 1; read off a plot.
For the variant chain 1 V548A, chain 1 P549A, the ratio to parent was approximately 0.43.
